Experimental findings from patent US20240343823A1 (Ablynx, published 2024) are described below.

Test [1] deals with T1, cyno Glypican-3 delta-GPI-HIS, in-house produced (cynomolgus).
T1 construct: range 3-559; also called cyno GPC3; cyGPC3
The experiment in a line: SPR ProteOn XPR36, GPC3 captured on anti-His antibody, 1:1 model. As to the method:
(§1) Recombinant GPC3 proteins were captured on a GLC Sensor Chip (Biorad) immobilized with THE anti-His antibody (Genscript, cat no ABIN387699) via amine coupling, using EDC and NHS chemistry (running buffer: HBS-EP+, pH7.4). Purified ISVDs were injected for 2 minutes (flow rate 45 μL/min) at different concentrations (between 0.3 nM and 1000 nM) and dissociation was followed for 900 s. Regeneration was performed by injecting 10 mM Glycine-HCl (pH 1.5) for 1 minute (flow rate 45 μL/min). Data was double referenced by subtracting a reference ligand lane and a blank buffer injection. Processed sensorgrams were analyzed based on the 1:1 interaction model (Langmuir binding model) using ProteOn Manager 3.1.0 (Version 3.1.0.6) software.

For test [2], the target named is T2, recombinant human Glypican-3 (R&D Systems, cat nr. 2119-GP) (human, UniProt P51654 25-559).
T2 construct: Bought protein; also called human GPC3; hGPC3
The description is as above. As to the method: as §1

The target in test [3] is T3, cyno GPC3 expressed on CHO Flp-In cells (cynomolgus).
T3 construct: range 3-559; On cells; also called cyGPC3 CHO; CHO-cGPC3
The experiment in a line: flow cytometry on CHO Flp-In cyno GPC3 cells. (In general: Flow cytometry measures light scatter and fluorescence of single cells or particles in a stream.)

In test [4] the target is T4, Human GPC1 (R&D systems, cat no 4519-GP) (human, UniProt P35052 24-530, limits assumed).
T4 construct: Bought
T4 sequence (looked up): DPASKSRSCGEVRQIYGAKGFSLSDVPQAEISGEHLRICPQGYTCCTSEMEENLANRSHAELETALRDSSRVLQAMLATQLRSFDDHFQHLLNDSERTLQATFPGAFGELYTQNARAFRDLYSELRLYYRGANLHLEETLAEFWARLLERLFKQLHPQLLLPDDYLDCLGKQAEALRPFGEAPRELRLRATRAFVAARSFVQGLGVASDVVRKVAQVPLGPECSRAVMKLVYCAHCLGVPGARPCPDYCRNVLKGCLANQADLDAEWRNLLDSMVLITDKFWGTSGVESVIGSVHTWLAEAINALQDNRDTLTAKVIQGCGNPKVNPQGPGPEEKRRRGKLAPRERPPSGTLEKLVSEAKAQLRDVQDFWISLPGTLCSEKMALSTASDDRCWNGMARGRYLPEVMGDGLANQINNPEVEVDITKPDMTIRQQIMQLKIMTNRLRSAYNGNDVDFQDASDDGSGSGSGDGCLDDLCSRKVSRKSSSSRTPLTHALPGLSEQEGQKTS
The experiment in a line: ELISA, GPC1 coated at 2 ug/mL. Here is the method:
(§2) Human GPC1 (R&D systems, cat no 4519-GP), human GPC2 (R&D systems, cat no 2304-GP), human GPC3 (R&D systems, cat no 2119-GP), human Glypican-5 (R&D systems, cat no 2607-G5) and human Glypican-6 (R&D systems, cat no 2845-GP) were directly coated overnight at 4° C. (2 μg/mL, 1×PBS buffer) on a 384-well HB SpectraPlate (PerkinElmer). The following day the plate was washed 6 times (AquaMax microplate washer, Molecular devices) and blocked with 1×PBS+1% Casein for 2 hours at room temperature. […] After 6 final wash steps the es(HS)TMB substrate (SDT) was added and the reaction stopped by addition of 1 M HCl after 10 minutes. The absorbance of the plate was measured at wavelengths 450 and 620 nm on the Clariostar instrument (BMG LABTECH) and the OD₄₅₀-OD₆₂₀ calculated and plotted for data analysis.

Test [5] addresses T5, human Glypican-6 (R&D systems, cat no 2845-GP) (human, UniProt Q9Y625 24-529, limits assumed).
T5 construct: Bought; also called GPC6
T5 sequence (looked up): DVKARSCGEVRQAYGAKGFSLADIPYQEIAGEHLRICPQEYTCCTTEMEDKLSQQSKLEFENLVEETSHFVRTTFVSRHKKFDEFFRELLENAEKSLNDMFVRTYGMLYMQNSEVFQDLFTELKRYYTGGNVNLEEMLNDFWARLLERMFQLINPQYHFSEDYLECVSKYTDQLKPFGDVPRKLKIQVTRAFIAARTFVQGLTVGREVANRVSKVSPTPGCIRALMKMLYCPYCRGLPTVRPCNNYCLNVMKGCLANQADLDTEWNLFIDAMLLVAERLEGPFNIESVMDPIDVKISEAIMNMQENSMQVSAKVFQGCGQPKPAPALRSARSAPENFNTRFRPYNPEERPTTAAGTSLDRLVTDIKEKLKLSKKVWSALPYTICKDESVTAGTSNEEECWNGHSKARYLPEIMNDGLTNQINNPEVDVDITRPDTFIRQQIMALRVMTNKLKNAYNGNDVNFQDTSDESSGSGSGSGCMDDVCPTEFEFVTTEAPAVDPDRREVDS
The experiment in a line: ELISA, Glypican-6 coated at 2 ug/mL. Here is the method:
as §2
Background: An ELISA detects its analyte on a solid surface through an enzyme-linked reagent.

Test [6] has as its target T6, cyno TCRab, in house produced (extracellular domains fused to a zipper peptide) (cynomolgus).
T6 construct: Numbering of the four differences is not explained; not shown: variable domains, if any; any residues beyond C131 of the beta chain
T6 alpha: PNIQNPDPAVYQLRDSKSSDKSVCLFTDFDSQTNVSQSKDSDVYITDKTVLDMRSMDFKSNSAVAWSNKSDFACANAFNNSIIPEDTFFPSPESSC
T6 beta: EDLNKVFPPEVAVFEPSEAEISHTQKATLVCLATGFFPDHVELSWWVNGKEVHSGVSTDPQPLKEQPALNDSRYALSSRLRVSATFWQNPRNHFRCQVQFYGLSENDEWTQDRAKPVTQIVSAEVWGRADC
Kind of test: SPR ProteOn XPR36, TCRab immobilized by amine coupling, 1:1 model. As to the method:
Recombinant TCR proteins were immobilized on a GLC Sensor Chip (Biorad) via amine coupling, using EDC and NHS chemistry (running buffer: HBS-EP+, pH 7.4). Purified ISVDs were injected for 2 minutes (flow rate 45 μL/min) at different concentrations (between 0.2 nM and 200 nM) and dissociation was followed for 900 s. Regeneration was performed by injecting 3 M MgCl₂ for 3 minutes (flow rate 90 μL/min). Data was double referenced by subtracting a reference ligand lane and a blank buffer injection. Processed sensorgrams were analyzed based on the 1:1 interaction model (Langmuir binding model) using ProteOn Manager 3.1.0 (Version 3.1.0.6) software.

B1: A022600424 (other)
chain: DVQLVESGGGVVQPGGSLRLSCVASGYVHKINFYGWYRQAPGKEREKVAHISIGDQTDYADSAKGRFTISRDESKNTVYLQMNSLRPEDTAAYYCRALSRIWPYDYWGQGTLVTVSSGGGGSEVQLVESGGGVVQPGGSLRLSCAASGFTFSSFAMTWVRRPPGKGLEWVATITNKGVTSYADSVKGRFTISRDNAKNTLYLQMNSLRPEDTALYICANARRTGPRAPTDIGSYRGQGTLVTVSSGGGGSGGGSEVQLVESGGGVVQPGGSLRLSCAASGSIFRSVFSSSTMEWYRQAPGKKRELVARIAPGEGTYYGALYADSVKGRFTISRDNAKNTVYLQMNSLRPEDTALYYCASGVAWGQGTLVTVSSGGGGSGGGSEVQLVESGGGVVQPGGSLRLSCAASGFTFRSFGMSWVRQAPGKGPEWVSSISGSGSDTLYADSVKGRFTISRDNSKNTLYLQMNSLRPEDTALYYCTIGGSLSRSSQGTLVTVSSA
notes: Trispecific tetravalent ISVD (VHH) T-cell engager: anti-TCR, two anti-GPC3 (biparatopic), anti-albumin; also called TCE01-5GS-A022600351-9GS-A022600314-9GS-ALB23002-A
For the molecule B1, the figures for the dissociation constant (Kd) in test [1], in test [2] and in test [6] were less than 0.0059 nM, less than 0.0056 nM and 5.4 nM, respectively. This molecule showed an EC50 in test [3] of 1.11 nM. Also, the binding result in test [4] and in test [5] was “no binding” throughout.

By Kd is commonly meant the free concentration of one partner at which half of the binding sites on the other are occupied at equilibrium, for simple one-to-one binding. What is called EC50 is the concentration needed to bring the measured effect to its halfway point. Low values mean a more potent agent, high ones a less potent agent.
